Experimental data taken from patent US20220220215A1.

Biological target: human CD137 expressed on cells (Jurkat human CD137 NF-kB luciferase reporter cells; human CD8+ T cells) (human) (UniProt Q07011)
Assay: cell-based or functional assay

CD8+ T-cell activation assay - IL-2 release, EC50: 397 pM
Substance: Urelumab analog (antibody)
